Results on 4 molecules are retold here after patent US20210380714A1.

Numbering of substitutions follows the chain as printed.

Test [1] has as its target native human MSLN expressed on the cell surface (N87 / NCI-N87 tumor cells) (human) (UniProt Q13421). Kind of test: KinExA on N87 cells compared with Biacore on rHuMSLN sol.
For test [2] the target is unchanged. Kind of test: KinExA equilibrium binding to N87 tumor cells expressing native human MSLN. Background: Kinetic exclusion samples the free partner from a solution-phase mixture.
Test [3] addresses recombinant human soluble MSLN (rHuMSLN sol.) (human) (UniProt Q13421). Kind of test: Biacore; 237 captured on the sensor chip, rHuMSLN sol. in solution. Background: Surface plasmon resonance follows binding to a sensor surface in real time, without labels.
Test [4] addresses native human MSLN expressed on the cell surface (N87 / NCI-N87 tumor cells) (human) (UniProt Q13421). Kind of test: KinExA, native hu MSLN on cells.
The target in test [5] is recombinant human soluble MSLN (rHuMSLN sol.) (human) (UniProt Q13421). Kind of test: Biacore, soluble human MSLN.
Sequence of recombinant human soluble MSLN (rHuMSLN sol.) (human) (Q13421 296-606 limits assumed): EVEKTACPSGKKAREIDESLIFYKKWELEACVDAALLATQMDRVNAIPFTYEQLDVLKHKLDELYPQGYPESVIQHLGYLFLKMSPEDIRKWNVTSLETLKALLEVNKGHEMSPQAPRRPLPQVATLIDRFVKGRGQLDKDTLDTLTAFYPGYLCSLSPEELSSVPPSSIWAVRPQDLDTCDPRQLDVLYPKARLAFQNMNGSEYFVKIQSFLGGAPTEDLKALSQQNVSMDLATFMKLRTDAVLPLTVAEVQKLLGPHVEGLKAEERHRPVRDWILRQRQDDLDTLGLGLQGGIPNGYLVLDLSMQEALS

Usually Kd stands for a measure of binding affinity in units of concentration.

Sequence of native human MSLN expressed on the cell surface (N87 / NCI-N87 tumor cells) (human) (Q13421 296-606 limits assumed): as above

B1: Ab237 (Hu-anti-huMesothelin-2.37-IgG1) (antibody, V domains shown)
VH: QVQLQESGPGLVKPSQTLSLTCTVSGGSINNNNYYWTWIRQHPGKGLEWIGYIYYSGSTFYNPSLKSRVTISVDTSKTQFSLKLSSVTAADTAVYYCAREDTMTGLDVWGQGTTVTVSS
VL: DIQMTQSPSSLSASVGDRVTITCRASQSINNYLNWYQQKPGKAPTLLIYAASSLQSGVPSRFSGSRSGTDFTLTISSLQPEDFAAYFCQQTYSNPTFGQGTKVEVK
In the case of B1, the fold better binding than to soluble MSLN in test [1] came out at 30 fold. Moreover, the Kd in test [2] came to 0.0035 nM; in test [3] it was 0.097 nM.

B2: 158.3 (antibody, V domains shown)
VH: QVQLQESGPGLVKPSETLSLTCTVSGGSIISHYWSWIRQPPGKGLEWIGYIYYSGSTNYNPSLKSRVTISVDTSKNQFSLKLTSVTAADTAVYYCARDGWSAFDYWGQGTLVTVSS
VL: DIQMTQSPSSLSASVGDRVTITCRASQGIRNALGWYQQKPGKAPKRLIYAASSLQSGVPSRFSGSGSGTEFTLTISSLQPEDFATYYCLQHNSYPRTFGQGTKVEIRR
On to B2, for which the Kd in test [4] amounted to 0.0122 nM; in test [5], 2.4 nM.

B3: 151 (antibody, V domains shown)
VH: B2 VH with I30S, H32Y, T83S, D98V, G99D, W100Y, S101K, Y105I, L111M
VL: DIQMTQSPSSLSASVGDRVTITCRASQGIRNDLHWYQQKPGKAPKRLIYAASSLQSGVPSRFSGSGSGTEFTLTISSLQPEDFATYYCLQHYSYPWTFGQGTKVEIK
For B3, the Kd was 0.03 nM in test [4] and 17.4 nM in test [5].

B4: 1.33.1 (antibody, V domains shown)
VH: QVQLQESGPGLVKPSQTLSLTCTVSGGSISGDGHFWSWIRQHPGKGLEWIGYIYYSGSTYYNPSLKSRVTISVDTSKNQFSLKLSSVTAADTAVYYCARLRGGYKFDYWGQGTLVTVSS
VL: DIVMTQTPLSLSVAPGQPASISCQSSLSLQHSNGKTYLYWYLQKPGQPPQLLIYEVSNRFSGVPDRFSGSGSGTDFTLKISRVEAEDVGIYYCMQSKQLPCSFGQGTKLEIK
Turning to B4, in test [5], the Kd was 0.965 nM.
